# T1: fHbp m001690 (Neisseria meningitidis, engineered fHbp …, point mutant)
# T1 chain: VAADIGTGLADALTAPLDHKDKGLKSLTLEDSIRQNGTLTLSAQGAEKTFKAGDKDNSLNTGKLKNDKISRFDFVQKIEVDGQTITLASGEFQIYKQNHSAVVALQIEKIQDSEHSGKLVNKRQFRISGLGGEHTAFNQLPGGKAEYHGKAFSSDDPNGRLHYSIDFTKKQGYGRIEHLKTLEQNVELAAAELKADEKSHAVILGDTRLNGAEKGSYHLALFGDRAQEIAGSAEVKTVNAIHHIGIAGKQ
# T2: fHbp m002333 (Neisseria meningitidis, engineered fHbp …, chimera)
# T2 chain: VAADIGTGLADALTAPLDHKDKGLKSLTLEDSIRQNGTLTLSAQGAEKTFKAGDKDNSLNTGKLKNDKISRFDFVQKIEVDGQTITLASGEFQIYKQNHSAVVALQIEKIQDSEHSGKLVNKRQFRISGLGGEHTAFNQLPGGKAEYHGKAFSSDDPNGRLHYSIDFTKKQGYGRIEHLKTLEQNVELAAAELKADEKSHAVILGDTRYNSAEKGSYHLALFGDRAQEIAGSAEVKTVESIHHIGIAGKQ
# T3: fHbp m001037 (Neisseria meningitidis fHbp v3.28, …, point mutant)
# T3 chain: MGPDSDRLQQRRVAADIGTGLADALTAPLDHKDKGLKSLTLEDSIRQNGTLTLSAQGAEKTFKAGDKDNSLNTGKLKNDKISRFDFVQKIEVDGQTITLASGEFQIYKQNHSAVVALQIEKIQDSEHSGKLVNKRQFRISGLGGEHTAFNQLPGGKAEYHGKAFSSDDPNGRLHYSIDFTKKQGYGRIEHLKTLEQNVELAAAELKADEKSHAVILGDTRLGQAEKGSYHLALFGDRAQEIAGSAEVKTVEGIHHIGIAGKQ
# T4: fHbp m001039 (Neisseria meningitidis fHbp v3.28, …, point mutant)
# T4 chain: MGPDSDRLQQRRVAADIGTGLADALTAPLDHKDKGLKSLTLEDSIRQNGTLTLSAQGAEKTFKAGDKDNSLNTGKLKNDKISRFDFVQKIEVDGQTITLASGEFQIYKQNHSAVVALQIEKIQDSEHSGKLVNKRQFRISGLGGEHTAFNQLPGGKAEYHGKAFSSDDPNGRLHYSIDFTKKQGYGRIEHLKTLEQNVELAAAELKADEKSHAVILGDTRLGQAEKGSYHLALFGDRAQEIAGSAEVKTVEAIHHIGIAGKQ
# T5: fHbp m001099 (Neisseria meningitidis fHbp v3.28-based …, point mutant)
# T5 chain: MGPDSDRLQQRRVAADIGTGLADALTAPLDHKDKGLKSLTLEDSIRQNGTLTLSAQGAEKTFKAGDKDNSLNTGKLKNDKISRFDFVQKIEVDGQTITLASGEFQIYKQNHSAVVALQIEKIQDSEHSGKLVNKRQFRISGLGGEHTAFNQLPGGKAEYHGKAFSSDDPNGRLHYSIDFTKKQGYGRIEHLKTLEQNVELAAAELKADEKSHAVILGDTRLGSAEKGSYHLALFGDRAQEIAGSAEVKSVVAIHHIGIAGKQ
# T6: fHbp m001211 (Neisseria meningitidis fHbp v3.28-based …, point mutant)
# T6 chain: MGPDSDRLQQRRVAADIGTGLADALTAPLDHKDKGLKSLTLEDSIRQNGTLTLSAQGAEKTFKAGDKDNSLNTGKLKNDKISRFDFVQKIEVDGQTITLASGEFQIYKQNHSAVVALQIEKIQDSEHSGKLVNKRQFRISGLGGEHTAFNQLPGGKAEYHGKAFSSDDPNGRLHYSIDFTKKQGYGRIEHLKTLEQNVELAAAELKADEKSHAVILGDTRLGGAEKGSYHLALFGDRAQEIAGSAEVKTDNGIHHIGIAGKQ
# T7: fHbp m001524 (Neisseria meningitidis, fHbp …, point mutant)
# T7 chain: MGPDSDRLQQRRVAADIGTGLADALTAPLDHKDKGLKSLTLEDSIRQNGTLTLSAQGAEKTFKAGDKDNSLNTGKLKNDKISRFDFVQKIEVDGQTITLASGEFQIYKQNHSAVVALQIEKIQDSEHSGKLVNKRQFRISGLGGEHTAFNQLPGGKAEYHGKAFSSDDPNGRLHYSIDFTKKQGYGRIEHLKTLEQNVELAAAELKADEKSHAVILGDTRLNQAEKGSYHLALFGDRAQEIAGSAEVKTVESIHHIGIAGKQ
# T8: fHbp m001621 (Neisseria meningitidis, fHbp …, point mutant)
# T8 chain: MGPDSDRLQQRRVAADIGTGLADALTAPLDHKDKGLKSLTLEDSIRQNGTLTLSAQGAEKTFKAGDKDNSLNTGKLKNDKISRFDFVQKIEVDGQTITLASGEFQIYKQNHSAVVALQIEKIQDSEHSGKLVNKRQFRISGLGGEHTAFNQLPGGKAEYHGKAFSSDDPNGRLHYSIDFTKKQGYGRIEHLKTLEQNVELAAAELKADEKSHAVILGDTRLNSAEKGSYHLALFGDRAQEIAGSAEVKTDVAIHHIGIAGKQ
# T9: fHbp m001660 (Neisseria meningitidis, fHbp …, point mutant)
# T9 chain: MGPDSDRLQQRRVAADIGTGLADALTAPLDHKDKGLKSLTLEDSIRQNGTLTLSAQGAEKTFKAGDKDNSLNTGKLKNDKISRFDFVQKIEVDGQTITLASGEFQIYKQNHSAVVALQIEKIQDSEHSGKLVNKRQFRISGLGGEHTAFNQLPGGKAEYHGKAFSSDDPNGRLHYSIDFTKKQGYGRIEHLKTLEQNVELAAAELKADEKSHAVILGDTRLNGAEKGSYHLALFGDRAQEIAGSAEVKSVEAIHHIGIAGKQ
# What was measured:
# Test in all cases: BLI
# Conditions in all cases: both partners purified
# fHbp m001690 = biological target: T1, fHbp m001690
# fHbp m002333 = biological target: T2, fHbp m002333
# fHbp m001037 = biological target: T3, fHbp m001037
# fHbp m001039 = biological target: T4, fHbp m001039
# fHbp m001099 = biological target: T5, fHbp m001099
# fHbp m001211 = biological target: T6, fHbp m001211
# fHbp m001524 = biological target: T7, fHbp m001524
# fHbp m001621 = biological target: T8, fHbp m001621
# fHbp m001660 = biological target: T9, fHbp m001660
Binder,Kd (fHbp m001690),koff (fHbp m001690),kon (fHbp m001690),Kd (fHbp m002333),koff (fHbp m002333),kon (fHbp m002333),Kd (fHbp m001037),koff (fHbp m001037),kon (fHbp m001037),Kd (fHbp m001039),koff (fHbp m001039),kon (fHbp m001039),Kd (fHbp m001099),koff (fHbp m001099),kon (fHbp m001099),Kd (fHbp m001211),koff (fHbp m001211),kon (fHbp m001211),Kd (fHbp m001524),koff (fHbp m001524),further results
"chimeric antibody h12C1 (antibody, V domains shown, also called humanized 12C1; source: Expi293, purified (MabSelect SuRe, SEC); copies: 2 + 2) VH: QVQLQESGPELVKPGASVKISCKASGYSFSDYNMSWVKQSNGKSLEWIGIIDPKYGTINYNQKFKGKATLTVDQASSTAYMQLNSLTSEDSAVYYCVRDYYGSSYFDYWGQGTTLTVSS VL: DIVLTQSPSSIYASLGERVTLTCKASQDIHNYLNWFQQKPGKSPKTLIYRANRLVDGVPSRFSGGGSGQDYSLTISSLEFEDIGIYYCLQYDEFPPTFGGGTRLEIK",0.525 nM,0.000185 s⁻¹,351700 ± 1560 M⁻¹ s⁻¹,166 nM,0.01686 ± 0.000166 s⁻¹,102000 ± 4590 M⁻¹ s⁻¹,0.893 nM,0.000269 s⁻¹,300900 ± 2650 M⁻¹ s⁻¹,65.7 nM,0.0146 s⁻¹,223000 ± 3080 M⁻¹ s⁻¹,44 nM,0.0106 s⁻¹,241000 ± 3220 M⁻¹ s⁻¹,19.8 nM,0.00753 s⁻¹,381300 ± 3730 M⁻¹ s⁻¹,0.701 nM,0.000117 s⁻¹,kon (fHbp m001524): 167000 ± 1950 M⁻¹ s⁻¹; Kd (fHbp m001621): 54 nM; koff (fHbp m001621): 0.0115 s⁻¹; kon (fHbp m001621): 214000 ± 5580 M⁻¹ s⁻¹; Kd (fHbp m001660): 139 nM; koff (fHbp m001660): 0.0649 ± 0.00238 s⁻¹; kon (fHbp m001660): 466000 ± 71500 M⁻¹ s⁻¹
"mAb 1E6 (human) (antibody, V domains shown, source: Expi293, purified (MabSelect SuRe, SEC); copies: 2 + 2) VH: EVQLVQSGAEVKKPGSSVKVSCKASGGTVIDYPITWVRQAPGQGLEWVGGFVPLFRTSNYGQKFQGRVTITADKSTSTASMELNSLTSEDTAIYYCARGDTAMGPFDYWGQGTLVTVSS VL: SYVLTQPPSLSVAPGKTATLTCGGNNIAGKTVHWYQQRPGQAPVLVISYDSDRPSGIPERFSGSNSANTATLTISRVEAGDEADYYCQVWDRNSDHWVFGGGTKLTVL",0.678 nM,0.000298 s⁻¹,438900 ± 1790 M⁻¹ s⁻¹,0.0267 nM,6.18e-06 s⁻¹,231300 ± 2110 M⁻¹ s⁻¹,0.349 nM,0.000144 s⁻¹,413700 ± 3870 M⁻¹ s⁻¹,0.655 nM,0.00031 s⁻¹,473100 ± 1890 M⁻¹ s⁻¹,0.841 nM,0.000237 s⁻¹,281500 ± 1290 M⁻¹ s⁻¹,0.507 nM,0.000219 s⁻¹,431400 ± 2210 M⁻¹ s⁻¹,0.742 nM,0.000167 s⁻¹,kon (fHbp m001524): 224700 ± 1680 M⁻¹ s⁻¹; Kd (fHbp m001621): 0.464 nM; koff (fHbp m001621): 0.000174 s⁻¹; kon (fHbp m001621): 375400 ± 1900 M⁻¹ s⁻¹; Kd (fHbp m001660): 0.706 nM; koff (fHbp m001660): 0.000209 s⁻¹; kon (fHbp m001660): 296000 ± 3450 M⁻¹ s⁻¹

# — publication PMC12319226 (Frontiers in Bioinformatics, 2025)
